Where a chain is given by its changes, count along the chain named. Numbers in names are those of the source. Bounds are passed on as bounds.

For experiment [1], the target named is T1, human BR3 expressed on cells (human, UniProt Q96RJ3 1-184). Nature of the experiment: cell-based or functional assay.
For experiment [2], the target named is T2, human FcγRI extracellular domain, His-tagged GST fusion (human, UniProt P12314 16-292).
T2 construct: extracellular domain; also called hFcgRI; Human I
Nature of the experiment: ELISA, captured FcgR-GST; EC50herceptin/EC50sample.

The target in experiment [3] is T3, human FcγRIIa extracellular domain, His-tagged GST fusion (human, UniProt P12318 34-217).
T3 construct: extracellular domain; also called hFcgRIIa; Human IIa
T3 sequence (looked up): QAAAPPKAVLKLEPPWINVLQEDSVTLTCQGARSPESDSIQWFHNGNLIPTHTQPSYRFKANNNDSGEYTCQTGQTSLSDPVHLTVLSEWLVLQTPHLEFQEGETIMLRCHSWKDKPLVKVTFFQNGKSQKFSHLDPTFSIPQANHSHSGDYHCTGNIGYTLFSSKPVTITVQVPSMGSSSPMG
Nature of the experiment: ELISA, captured FcgR-GST; EC50herceptin/EC50sample. For orientation: ELISA stands for enzyme-linked immunosorbent assay.

The target in experiment [4] is T4, human FcγRIIb extracellular domain, His-tagged GST fusion (human, UniProt P31994 43-217).
T4 construct: extracellular domain; also called hFcgRIIb; Human IIb
T4 sequence (looked up): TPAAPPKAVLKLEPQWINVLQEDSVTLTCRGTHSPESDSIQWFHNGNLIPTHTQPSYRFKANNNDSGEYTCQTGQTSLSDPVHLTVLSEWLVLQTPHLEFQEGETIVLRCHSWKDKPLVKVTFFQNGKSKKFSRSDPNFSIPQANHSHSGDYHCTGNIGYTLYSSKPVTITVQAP
The experiment can be described thus: ELISA, captured FcgR-GST; EC50herceptin/EC50sample.

Experiment [5] has as its target T5, mouse FcγRI extracellular domain, His-tagged GST fusion (mouse, UniProt P26151 25-297).
T5 construct: extracellular domain; also called Mouse I
T5 sequence (looked up): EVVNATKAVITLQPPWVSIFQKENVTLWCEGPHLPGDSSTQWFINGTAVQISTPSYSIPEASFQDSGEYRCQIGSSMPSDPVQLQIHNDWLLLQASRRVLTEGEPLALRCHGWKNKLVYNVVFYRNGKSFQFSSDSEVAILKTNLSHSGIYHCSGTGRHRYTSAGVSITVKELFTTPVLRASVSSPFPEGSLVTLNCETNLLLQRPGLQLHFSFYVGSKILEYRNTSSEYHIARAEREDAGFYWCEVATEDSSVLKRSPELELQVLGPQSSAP
Nature of the experiment: ELISA, captured FcgR-GST; EC50herceptin/EC50sample.

The target in experiment [6] is T6, mouse FcγRII extracellular domain, His-tagged GST fusion (mouse, UniProt P08101 30-210).
T6 construct: extracellular domain; also called Mouse II
T6 sequence (looked up): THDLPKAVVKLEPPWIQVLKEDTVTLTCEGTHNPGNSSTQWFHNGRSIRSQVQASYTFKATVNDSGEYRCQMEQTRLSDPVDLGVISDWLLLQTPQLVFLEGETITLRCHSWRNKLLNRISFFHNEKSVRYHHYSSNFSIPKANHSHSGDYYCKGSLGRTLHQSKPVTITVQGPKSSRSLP
The experiment can be described thus: ELISA, captured FcgR-GST; EC50herceptin/EC50sample.

Experiment [7] addresses T7, mouse FcγRIII extracellular domain, His-tagged GST fusion (mouse, UniProt P08508 31-215).
T7 construct: extracellular domain; also called Mouse III
T7 sequence (looked up): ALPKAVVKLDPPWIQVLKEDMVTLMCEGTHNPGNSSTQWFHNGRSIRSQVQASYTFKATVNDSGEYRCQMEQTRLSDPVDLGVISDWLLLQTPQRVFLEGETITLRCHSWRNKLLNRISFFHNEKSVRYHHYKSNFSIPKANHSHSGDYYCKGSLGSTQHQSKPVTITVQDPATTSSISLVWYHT
The experiment can be described thus: ELISA, captured FcgR-GST; EC50herceptin/EC50sample.

Experiment [8] concerns the target T1, human BR3 expressed on cells. The experiment can be described thus: BJAB cells, direct binding.
In experiment [9] the target is T8, human FcRn (human, UniProt P55899 24-297; P61769 21-119, limits assumed).
T8 construct: construct not described; also called huFcRn
Nature of the experiment: SPR, FcRn on chip, kinetic, pH 6.

Experiment [10] concerns the target T9, cynomolgus FcRn (cynomolgus monkey, UniProt Q8SPV9 24-297; Q8SPW0 21-119, limits assumed).
T9 construct: construct not described; also called cynoFcRn; cyno FcRn
The experiment can be described thus: SPR, FcRn on chip, kinetic, pH 6. (Surface plasmon resonance follows binding to a sensor surface in real time, without labels.)

In experiment [11] the target is T10, human BR3 extracellular domain (human, UniProt Q96RJ3 1-61).
T10 construct: biotinylated where used as tracer; also called hBR3-ECD; BR3-ECD
Nature of the experiment: SPR, IgG on chip, BR3 ECD in solution.

The target in experiment [12] is T1, human BR3 expressed on cells. Nature of the experiment: BJAB cells, competition with biotin-BAFF.
Experiment [13] addresses T8, human FcRn. The experiment can be described thus: SPR, FcRn on chip, kinetic, pH 6.0 (KDa).
For experiment [14], the target named is T9, cynomolgus FcRn. Nature of the experiment: SPR, FcRn on chip, kinetic, pH 6.0 (KDa).
In experiment [15] the target is T8, human FcRn. The experiment can be described thus: SPR, FcRn on chip, equilibrium, pH 6.0 (KDb).
The target of experiment [16] is T9, cynomolgus FcRn. Nature of the experiment: SPR, FcRn on chip, equilibrium, pH 6.0 (KDb).
Experiment [17] concerns the target T2, human FcγRI extracellular domain, …. Nature of the experiment: ELISA, captured FcgR-GST; A450 ratio to 9.1RF.
Experiment [18] has as its target T3, human FcγRIIa extracellular domain, …. The experiment can be described thus: ELISA, captured FcgR-GST; A450 ratio to 9.1RF.
Experiment [19] has as its target T4, human FcγRIIb extracellular domain, …. Nature of the experiment: ELISA, captured FcgR-GST; A450 ratio to 9.1RF.
Experiment [20] deals with T2, human FcγRI extracellular domain, …. The experiment can be described thus: ELISA, receptor-His-GST captured by anti-GST, uncomplexed IgG.
In experiment [21] the target is T3, human FcγRIIa extracellular domain, …. Nature of the experiment: ELISA, receptor-His-GST captured by anti-GST, IgG complexed with anti-kappa F(ab')2.

B1: 9.1RF S298A/E333A/K334A IgG (antibody)
light: DIQMTQSPSSLSASVGDRVTITCKSSQSLLYSSNQNNYLAWYQQKPGKAPKLLIYWASTRESGVPSRFSGSGSGTDFTLTISSLQPEDFATYYCQQYYTYPYTFGQGTKVEIKRTVAAPSVFIFPPSDEQLKSGTASVVCLLNNFYPREAKVQWKVDNALQSGNSQESVTEQDSKDSTYSLSSTLTLSKADYEKHKVYACEVTHQGLSSPVTKSFNRGEC
heavy: EVQLVESGGGLVQPGGSLRLSCAASGFTVTAYYMSWVRQAPGKGLEWVGFIRDKANGYTTEYNPSVKGRFTISRDTSKNTFYLQMNSLRAEDTAVYYCAQVRRALDYWGQGTLVTVSSASTKGPSVFPLAPSSKSTSGGTAALGCLVKDYFPEPVTVSWNSGALTSGVHTFPAVLQSSGLYSLSSVVTVPSSSLGTQTYICNVNHKPSNTKVDKKVEPKSCDKTHTCPPCPAPELLGGPSVFLFPPKPKDTLMISRTPEVTCVVVDVSHEDPEVKFNWYVDGVEVHNAKTKPREEQYNATYRVVSVLTVLHQDWLNGKEYKCKVSNKALPAPIAATISKAKGQPREPQVYTLPPSREEMTKNQVSLTCLVKGFYPSDIAVEWESNGQPENNYKTTPPVLDSDGSFFLYSKLTVDKSRWQQGNVFSCSVMHEALHNHYTQKSLSLSPG
notes: Fc variant of 9.1RF, transient CHO expression; copies: 2 + 2
With B1, in experiment [1], the “ADCC activity relative to 9.1wt (relative EC50 values)” value was found to be 2.8 fold. Further, the “ADCC on BJAB cells (LDH release), EC50” value in [1] is < 1 nM. Also, the “fold improvement in binding vs Herceptin” value in experiment [2] amounted to 0.7 fold; in experiment [3] it was 0.2 fold; in experiment [4] it was 0.4 fold; in experiment [5], 2.5 fold; in experiment [6], 0.4 fold; in experiment [7], 0.6 fold.

B2: 9.1RF IgG antibody (antibody)
light: B1 light
heavy: not shown
notes: produced in CHO cells; also called h9.1-RF; Hu9.1-RF-IgG; copies: 2 + 2
As usually defined, the EC50 is the concentration at which the effect is half-maximal. As a reminder, the koff is the rate constant with which the complex falls apart. Broadly, the kon is the second-order rate constant of association. What is called Kd is the free concentration of one partner at which half of the binding sites on the other are occupied at equilibrium, for simple one-to-one binding. Low values mean a tighter complex, high ones a looser complex. The IC50 is the concentration needed to halve the response being measured. A lower IC50 goes with greater potency in that assay. What is called EC50 (read off the curve) is the concentration at which the effect is half-maximal. Low values mean a more potent agent, high ones a less potent agent. Regarding B2, a half-maximal effect in experiment [8] (EC50) was put at 0.46 nM. Also, the results for the koff (with human FcRn [9]; with cynomolgus FcRn [10]; in experiment [11]) were 0.0784 s⁻¹, 0.192 s⁻¹ and 0.000309 s⁻¹, respectively. Moreover, the kon with human FcRn [9] is 635000 M⁻¹ s⁻¹; with cynomolgus FcRn [10], 1.01e+06 M⁻¹ s⁻¹; in experiment [11], 1.8e+06 M⁻¹ s⁻¹. In addition, the Kd in experiment [11] was 0.169 nM; with human FcRn [13] it was 123 nM; with cynomolgus FcRn [14], 191 nM; with human FcRn [15] it was 118 nM; with cynomolgus FcRn [16], 186 nM. The molecule further yielded a half-maximal inhibitory concentration (IC50) in experiment [12] of 0.68 nM. In addition, the “binding relative to 9.1RF” value in experiment [17], in experiment [18] and in [19] was 1 ratio each time. The “fold improvement in binding vs Herceptin” value is 1 fold in experiment [2]; 2.3 fold in experiment [3]; 0.7 fold in experiment [4]; 1.2 fold in experiment [5]; 0.7 fold in experiment [6]; 0.8 fold in experiment [7]. Moreover, the “EC50 (read off the curve)” value in experiment [20] is ~0.006 µg/mL; in [21], ~1 µg/mL.

B3: 9.1RF S298A/K326A/E333A/K334A IgG (antibody)
light: B1 light
heavy: B1 heavy with K327A
notes: as for B1
Consider B3, for which, in experiment [1], the “ADCC activity relative to 9.1wt (relative EC50 values)” value is 3 fold. For the same molecule, the “ADCC on BJAB cells (LDH release), EC50” value in [1] was < 1 nM. The “fold improvement in binding vs Herceptin” value was determined as 0.6 fold in experiment [2]; 0.2 fold in experiment [3]; 0.7 fold in experiment [4]; 1.9 fold in experiment [5]; 1.3 fold in experiment [6]; 1.2 fold in experiment [7].

Source of the values: patent US20100280227A1 (Genentech, published 2010).
